Key:
[1] = target: mouse 4-1BB on activated mouse splenocytes (mouse) (UniProt P20334); experiment: flow cytometry, activated mouse splenocytes, CD4+ T cells, PE anti-human IgG Fc secondary, MFI baseline corrected
[2] = target: mouse 4-1BB on activated mouse splenocytes (mouse) (UniProt P20334); experiment: flow cytometry, activated mouse splenocytes, CD8+ T cells, PE anti-human IgG Fc secondary, MFI baseline corrected

mouse 4-1BB on activated mouse splenocytes (mouse), sequence (P20334 24-256): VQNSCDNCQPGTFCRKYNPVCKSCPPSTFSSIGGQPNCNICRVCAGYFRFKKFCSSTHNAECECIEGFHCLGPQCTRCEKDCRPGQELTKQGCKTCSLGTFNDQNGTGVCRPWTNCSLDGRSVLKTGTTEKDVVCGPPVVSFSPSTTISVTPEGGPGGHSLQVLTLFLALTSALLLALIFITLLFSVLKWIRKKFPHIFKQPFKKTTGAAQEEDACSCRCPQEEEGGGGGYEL

EC50 (read off the curve) [1]: 0.08 nM | EC50 (read off the curve) [2]: 0.09 nM
Substance: anti-mouse CD137-specific human IgG1 P329G LALA antibody (clone Lob12.3)

Source: patent US20250101135A1
